Target: GFP 1-10 OPT (Aequorea victoria) [GFP: P42212]
Experiment: cell-based or functional assay

complementation rate (fold (decrease)): 5
Substance: HPS-GFP 11 M2 (3-hexulose 6-phosphate synthase fused to GFP S11 M2; L221H, F223S, T225N)
